Experimental data from US20070178531A1 (BIOCHECK, published 2007).
Changes are numbered by the printed parent chain.

Columns and labels:
[1] = biological target: T1, Human Id3: Histidine (human, UniProt Q02535 1-119 at identity 1.00)); test: ELISA, Ab 0.010 µg/ml
T1 construct: Fusion protein made in E. coli from vector pGW07; also called h-Id3: His; Human Id3 (coated wells); not shown: His tag
T1 chain: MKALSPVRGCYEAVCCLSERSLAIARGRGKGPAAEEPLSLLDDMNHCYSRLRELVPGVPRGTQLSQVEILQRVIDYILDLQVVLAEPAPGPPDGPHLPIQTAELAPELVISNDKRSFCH

[2] = biological target: T2, Mouse Id1: Histidine (mouse, UniProt P20067-2 1-148, limits assumed); test: ELISA, Ab 0.010 µg/ml
T2 construct: Fusion protein made in E. coli from vector pGW07; also called m-Id1-His; not shown: His tag
T2 sequence (looked up): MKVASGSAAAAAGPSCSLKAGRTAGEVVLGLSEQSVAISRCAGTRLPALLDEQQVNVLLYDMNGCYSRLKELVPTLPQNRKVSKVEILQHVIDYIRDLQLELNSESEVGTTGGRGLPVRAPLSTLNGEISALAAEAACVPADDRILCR

[3] = biological target: T3, Mouse Id2: Histidine (mouse, UniProt P41136 1-134, limits assumed); test: ELISA, Ab 0.010 µg/ml
T3 construct: Fusion protein made in E. coli from vector pGW07; also called m-Id2: His; not shown: His tag
T3 sequence (looked up): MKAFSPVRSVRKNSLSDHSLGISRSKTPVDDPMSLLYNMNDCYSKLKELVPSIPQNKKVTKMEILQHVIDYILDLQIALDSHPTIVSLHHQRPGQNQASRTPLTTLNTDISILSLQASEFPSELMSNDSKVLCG

[4] = biological target: T1, Human Id3: Histidine; test: ELISA, Ab 0.005 µg/ml
[5] = biological target: T4, Human Id1: Histidine (human, UniProt P41134 1-155, limits assumed); test: ELISA, Ab 0.005 µg/ml
T4 construct: Fusion protein made in E. coli from vector pGW07; also called h-Id1: his; not shown: His tag
T4 sequence (looked up): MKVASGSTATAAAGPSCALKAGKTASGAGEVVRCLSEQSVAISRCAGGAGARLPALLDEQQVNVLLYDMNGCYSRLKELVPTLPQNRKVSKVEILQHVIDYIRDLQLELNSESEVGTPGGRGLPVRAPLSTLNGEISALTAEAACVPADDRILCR

[6] = biological target: T2, Mouse Id1: Histidine; test: ELISA, Ab 0.005 µg/ml
[7] = biological target: T3, Mouse Id2: Histidine; test: ELISA, Ab 0.005 µg/ml
[8] = biological target: T5, Human Id2: Histidine (human, UniProt Q02363 1-134, limits assumed); test: ELISA, Ab 0.500 µg/ml
T5 construct: Fusion protein made in E. coli from vector pGW07; also called h-Id2: His; not shown: His tag
T5 sequence (looked up): T3 sequence (looked up) with T60S, V131A

[9] = biological target: T1, Human Id3: Histidine; test: ELISA, Ab 0.500 µg/ml
[10] = biological target: T6, Mouse Id3: Histidine (mouse, UniProt P41133 1-119); test: ELISA, Ab 0.500 µg/ml
T6 construct: Fusion protein made in E. coli from vector pGW07; also called m-Id3: His; Mouse Id3 (coated wells); not shown: His tag
T6 sequence: T1 chain with G31S, A33S, A34T, A105T, N112K

[11] = biological target: T4, Human Id1: Histidine; test: ELISA, Ab 0.500 µg/ml
[12] = biological target: T2, Mouse Id1: Histidine; test: ELISA, Ab 0.500 µg/ml
[13] = biological target: T3, Mouse Id2: Histidine; test: ELISA, Ab 0.500 µg/ml
[14] = biological target: T7, Mouse Id4: Histidine (mouse, UniProt P41139 1-161, limits assumed); test: ELISA on coated wells, summary
T7 construct: Fusion protein made in E. coli from vector pGW07; also called m-Id4: His; not shown: His tag
T7 sequence (looked up): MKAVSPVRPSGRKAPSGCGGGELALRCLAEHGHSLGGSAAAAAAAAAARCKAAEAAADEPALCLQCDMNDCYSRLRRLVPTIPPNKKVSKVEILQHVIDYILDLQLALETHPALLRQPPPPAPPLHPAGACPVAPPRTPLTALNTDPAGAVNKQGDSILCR

[15] = biological target: T5, Human Id2: Histidine; test: ELISA on coated wells, summary
[16] = biological target: T8, Human Id4: Histidine (human, UniProt P47928 1-161, limits assumed); test: ELISA on coated wells, summary
T8 construct: Fusion protein made in E. coli from vector pGW07; also called h-Id4: His; not shown: His tag
T8 sequence (looked up): T7 sequence (looked up) with L125H, A130T, V133A

[17] = biological target: T4, Human Id1: Histidine; test: ELISA on coated wells, summary
[18] = biological target: T2, Mouse Id1: Histidine; test: ELISA on coated wells, summary
[19] = biological target: T3, Mouse Id2: Histidine; test: ELISA on coated wells, summary

B1: rabbit monoclonal anti-mouse/human Id3, clone #BCH-4/#6-1 (antibody, V domains shown)
VH: QSVEESGGRLVTPGTPLTLTCTASGFSLSNVYIHWVRQAPGKGLEWIGYISDGDTARYATWAKGRFTISKTSSTTVNLKMTSLTTEDTATYFCARQGFNIWGPGTLVTVSL
VL: AVLTQTPSPVSAAVGGTVSISCQSSQSVWNNNWLSWFQQKPGQPPKLLIYETSKLESGVPSRFKGSGSGTQFTLTISDVQCDDAATYYCLGGYWTTSDNNVFGGGTEVVVK
notes: Rabbit IgG from a rabbit hybridoma; also called m/h Id3 MoAb 6-1
With B1 the A450 [1] was 0.48 A450, the A450 [2] was 0.079 A450 and the A450 [3] was 0.071 A450. It also gave an A450 [4] of 0.248 A450, an A450 [5] of 0.075 A450 and an A450 [6] of 0.076 A450. For the same binder, the A450 [7] was 0.073 A450, the A450 [8] was 0.062 A450 and the A450 [9] was 3.3 A450. The A450 [10] was 3.47 A450, the A450 [11] was 0.062 A450 and the A450 [12] was 0.067 A450. For the same binder, the A450 [13] was 0.073 A450.

B2: rabbit monoclonal anti-human Id3, clone #BCH-4/#3-3 (antibody, V domains shown)
VH: QSVEESGGRLVTPGTPLTLTCTVSGIDLSSYAMSWVRQAPGKGLEWIGVIFPSNNVYYASWAKGRFTISKTSTTVDLKITSPTTEDTATYFCASMGAFDSWGPGTLVTVSS
VL: QVLTQTPSPVSAAVGGTVTINCQASQSIYNDNDLAWFQQKPGQPPKLLIYDASTLTSGVPSRFKGSGSGTQFTLTISDLDCDDAATYYCAARYSGNIYGFGGGTEVVVK
notes: Rabbit IgG from a rabbit hybridoma; also called h Id3 MoAb 3-3
B2 was tested, and the “Cross-reactivity (%)” value [14] was under 1%, the “Cross-reactivity (%)” value [15] was under 1% and the “Cross-reactivity (%)” value [16] was under 1%. The “Cross-reactivity (%)” value [17] was under 1%, the “Cross-reactivity (%)” value [18] was under 1% and the “Cross-reactivity (%)” value [19] was under 1%.
